Experimental data: the DeepSol protein solubility set

Test: soluble on expression in E. coli; label from the status in PepcDB or PDB records

Row | Sequence | soluble on expression in E. coli
1 | MSLIEPDHPDLSIGQQCKLLSIARSSYYYEPKGETEQNLGLMRRIDEQFLETPFFGVRQMTWHLRNDGHLVNEKRIRWLMRLMGLMPIYQKPNTNRPTKGHKTYPYLLRGLRVERPNQVWCSDITYLPMRRGFLYLVAIMDWHTRKVLSWRISNTLEAQFCVDALNEAIHKFGPPEIMNTDQGSQFTSFAWTDRLRRSGVRISPLAHENMRCRAADGRERSVPPLSWFASKPLSGNGQHLHREAVAHPEIRVRLPACLGDRFGDKGGHPEMDDLLQPPAPAFSPRRQATGAGLLAEKEGHHHHHH | not soluble
2 | MSLIGETINKLKVIKESSKRDKSRCKMYECLCECGEVIIVRSSTLRQGKIKSCGCESNKIHSELMRERNTTHGLSSNPMYQRWLGMKQRCYDVNAINYKNYGGRGIEICEEWKNDFKKFYDYMGDPPNENYQIDRINNDGNYEPGNVKWSTRSENSTNIRKKEGHHHHHH | soluble
3 | MSLIITRTPLRITFVGGGTDLPDFYTRHGGSVVSAAINRYIYIIVNKKFDSKIRVSYSRTEIVDKVDEIRHPTVREALRLLELDGGIEILSISDVPSQGTGLGSSSSFLVGLLNALHAYKSEYVSNETLAEEAVKIEREILREAGGKQDQYMAAYGGIDLLQFFQNGEVRVKPIPLNTERLKYLRDNTALLYTGVERSSTDIHTDQISKIDDHIQEYLEMKKLAEEFAVKLYASDIKELGEIMDRNWMLKRKLSGKITNDLIDRLYIRAKELGAYGGKLIGAGGGGFLLFFIDHNKRENLKELGLRQMDYDFDFEGSRIIYYQDREGHHHHHH | soluble
4 | MSLIKLYDNYVFISQEGGESGERLYSKKFREKSVVDVSGLRIGEGLVVAAGPCSVENEAMILDIARSVKAAGADMIRGGAFKPRTSPYSFQGLAEKGIEYLVEAREETGLPIVTEIMNPEYYRYFDRVDMLQVGSRNAQNFDLLRFLGKQKKPVLLKNGMGNTAREWLETAEYILSGGNGNVVLCYRGVRGIENSTRFTMNVGSIIYAKSETHLPICADPSHASGRRDFVESMALASVAAGADMLEIEVHNDPDNALSDSEQQIRPVDLKRIIEKARALKDLLSHEIEGHHHHHH | not soluble
5 | MSLILRRVFIAIGCVLFSPLSQANSSLGEVNIELRGNVVDFTCAVVAGDSNKSVNLGTWPTKQLHAAGDATQPVAFSLKLEGCPPGSASITFSGTPAPGTALLALADTAMAQKLAIEIRDGDQRRLPLEQASKAVDIDNNGNATLKFYANYIALADGVQPGLANADATFLINYNEGGSHHHHHH | soluble
6 | MSLISLSFFPGAKIGVLGLNGAGKSTLLRIMAGIDKDIDGEARPQPGLKVGYLPQEPKLDESKTVREVVEEAVADVAYALKRLDEVYAAYAEPDADFDALAKEQGELEALIQAKNGHNLDNALERAADALRLPEWDAQVKYLSGGERRRVAICRLLLENPDMLLLDEPTNHLDAESVAWLERFLVDYAGTVVAITHDRYFLDNAAGWILELDRGEGIPWQGNYTSWLEQKDARLKQEASQEKARQKTIEKELEWVRQNPKGRQAKSKARMARFEELQNTEHQKRNETNELFIPPGERLGDKVIEVKNLTKSFDGRVLIDDLSFSMPKGAIVGIIGPNGAGKSTLFKMLSGVEKPDSGTIELGDTVKLASVDQFRDSMNDKHTVFQEISEGADIIRINNFEIPARAYCSRFNFKGVDQQKVIGELSGGERNRVHLAKLLKAGGNVLLLDEPTNDLDVETLRALEEALLEFPGCAMVISHDRWFLDRIATHILDYRDEGKVNFYEGNYTEYMEWLKQTLGAQAAEPHRIKYKRITK | not soluble
7 | MSLISPIIRLSHVTFQTSSAARVIKEFVTKYQFHPFAARGLDGGSPCQVALKNGGVVFMVNENTPKTHENSVLLYDFPLQIPFPDTACNVTFEVEDVSGLYHHLVDEGCQLLLPPTELHDDFGSVTYCIVKSVVGNVSHTLIDRTHYRSSFLPGFEYLKNSTHNLSSGNMTEGHHHHHH | not soluble
8 | MSLIYCETERLILRDWHEDDLLPFQKMNANYDVRKYFPSLLSYRRSELDMRTMDAVIKDYGIGLFAVEDKESHQWIGFIGLNYIPETSDYPFKELPLYEIGWRLLPEFWGKGLATEGAKATLKLAEEHQIYDVYSFTAEANKASQRVMEKIGMTVYDHFELPNLSKYHLLKRQVRYYINLRKEGHHHHHH | soluble
